The nanobody polyreactivity screen of Harvey et al. (2022)

assay: yeast display, Sf9 membrane polyspecificity reagent, FACS + sequencing; frameworks hold sequencing errors
Procedure, shortened: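 A nanobody's polyreactivity label depends on the gate it was sorted from. Yeast display cells were stained with 10% biotinylated, detergent-solubilized Sf9 membrane reagent for 1 hour at 4 °C, enriched on streptavidin microbeads and sorted by FACS. The low and high (top ~1%) gates were set on anti-HA fluorescence for expression and streptavidin fluorescence for reagent binding.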

Row | Sequence | polyreactivity (PSR sort gate)
1 | QVQLVESGGGLVQAGGSLRLSCAASRSTSYDYAMGWYRQAPGKERELVAAISGSSSTTYYADSVKGRFTISRDNAKNTVSLQMNSLKPEDTAVYYCNAVTTSGSGYGYWGQGTQVTVSS | low polyreactivity
2 | QVQLVESGGGLVQAGGSLRLSCAASRYTFTLYAMGWYRKAPGKEWELLAAISRSGGSTYYADSVKGRFTISRDNAKITVYLQMNSLKPEDTAVYYCAADKYFAWGYPSGLWYDYWGQGTQVTVSS | high polyreactivity
3 | QVQLVESGGGLVQAGGSLRLSCAASVFTFTHYAMGWYRQSAGKERELVAAISTSGVSTYYSDSVKGRFTISRDNAKNTVYLQMNSLKPEDTAVYYCAARRDGWFQWGYYYWGQGTQVTVSS | low polyreactivity
4 | QVQLVESGGGLVQAGGSLRLSCAASVFTFTRYVMGWYRQAPVKERELVAAISGSGGSTNYADSVKGRFTISRDNAKNTVYLQMNSLKPEDTVVYYCAARFVGSRYRFDYWGQRTQVTVSS | high polyreactivity
5 | QVQLVESGGGLVQAGGSLRLSCAASVFTIPRYAMGWYRQAPGKETELFAAITSGGSTYYADSVKGRFTISRDNAKNTVYLQMNSLKPEDTAVYYWASRAVWSSWGSRYDSWGHGTQVTVSS | high polyreactivity
6 | QVQLVESGGGLVQAGGSLRLSCAASVIIFYPYAMGWSRQAPGKEMELVAAITARSANTYYADSVKGRFTISRDNAKNTVYLQMNSLKPEDTAVYYCAAAIYSYRTPYYYWGQGTQVTVSS | high polyreactivity
7 | QVQLVESGGGLVQAGGSLRLSCAASVITSPYAMGWYRQAPGKERELVAAISWSGSSTYYADSVKGRFTISRDNAKNTVYLQINSLKPEDTAVYYCATLVSDSRSRRFGYEYWGQGSQVTVSS | high polyreactivity
8 | QVQLVESGGGLVQAGGSLRLSCAASVLTFYEYAMGWYRQAPGKERELVASISGRAASTDYADSVKGRFTISRDNAKNTVYLQMNSLKPEDTAVYYCAVGVVGDIDTDGYWGQGTQVTVSS | low polyreactivity
9 | QVQLVESGGGLVQAGGSLRLSCAASVNIFESYGMGWYRQAPGKERELVATINTSSGSTYYADSVKGRFTISRDNAKNTVYLQMNSLKPEDTAVYYCSAEWYPYPWGYGYSGQGTQVTVSS | low polyreactivity
10 | QVQLVESGGGLVQAGGSLRLSCAASVRIFAKYAMGWYRQAPGKERELVAAIRWRGGNTYYADSVKGRFTISRDNAKNTVYLQMNSLKPEDTAVYYCAAGTWLGRGYIGQVESWGQGTQVTVSS | high polyreactivity
11 | QVQLVESGGGLVQAGGSLRLSCAASVRIFGYARGWYRQAPGKERELVAAITSSGGRTYYADSVKGLFTISRDNAKNTVYLQMNSLKPEDTAVYYCAKDASVSYSTNFRYYYWGQGTQVTVSS | high polyreactivity
12 | QVQLVESGGGLVQAGGSLRLSCAASVRIFLWYAMGWYRQAPGKERELVAAITKSAGTTYYADSVKGRFTISRDNAKNTVYLQMNSLKPEDTAVYYCGAYYWLYAHWRFGNYWGQGTQVTVSS | low polyreactivity
13 | QVQLVESGGGLVQAGGSLRLSCAASVRTFKYYAMGWYRQAPGKERELVASISRGGGSTYYADSVKGRFTISRDNAKNTVYLQMNSLKPDDTAVYYCAAYLRTRYIYCGQGTQVTVSS | high polyreactivity
14 | QVQLVESGGGLVQAGGSLRLSCAASVRTFLYNAMGWYRQAPGKERELVASITTSGGSTYYADSVKGRFTISRDNAKNTVYLQMNSLKPEDTAVYYCAAGLPKWYDYGRLVKYNYWGQGTQVTVSS | low polyreactivity
15 | QVQLVESGGGLVQAGGSLRLSCAASVRTFYFYTMGWYRQSPGKERELVATIRWSAGSTYYADSVKGRFTISRDNAKNTVYLQMNSLKPEDTAVYYCNADPFVYSSWQYGYWGQGTQVTVSS | high polyreactivity
16 | QVQLVESGGGLVQAGGSLRLSCAASVRTQPRYAMGRYRQAPGKERDLVAAISRSGGSTHYADSVKGRFTISRDNAKNTVYFQMNSLKPEDTAVYYCATQRYPYRFYAFQYYYWGQGTQVTVSS | high polyreactivity

Row | Sequence | polyreactivity (PSR sort gate)
17 | QVQLVESGGGLVQAGGSLRLSCAASVSIFDLYAMRWYIQAPGKERELVAAISWSDSRTYYADSVKGRFTISRDNATNTVYLQKNSLKPEDTAVYYCAADYRYPDNYGGYDYWGQGTQLTVSS | low polyreactivity
18 | QVQLVESGGGLVQAGGSLRLSCAASVSTFSVYAMGWYRQAPGKERELVADISENGGSTYYADSVKGLFTISRDNAKNTVYLQMNSLKPEHTAVYYCAALYHSTSHTYSYWGQGTQVTVSS | low polyreactivity
19 | QVQLVESGGGLVQAGGSLRLSCAATGFTFIPYAMGWYRQAPGKERELVAGITIGGRTNNADSVKGRFTISRDNAKNTVYLQMNSLKPEDTAVYYCNAGVYLYVTSKYWYYYWGQGTQVTVSS | high polyreactivity
20 | QVQLVESGGGLVQAGGSLRLSCAATGFTIAWYTMGWYRQAPGKERELVAAISLNGGSKYYADSVKGRFTISRDNAKNTVYLQMNSLKPDDTAVYYCAKGYRWPYYPYDYWGQGTQVTVSS | low polyreactivity
21 | QVQLVESGGGLVQAGGSLRLSCAATGFTYYRNARGSYRQAPGKERELVAAISGSGGSTYYADSVKGRFTISRDNATNTVYLQMNSLKPEDTAVYYCAAAAGSYNSGNGYWGLGTQVTVSS | high polyreactivity
22 | QVQLVESGGGLVQAGGSLRLSCAATGGTFTFYAMGWYRQAPGKERELVATINWSGGSTYYADSVKGRFTISRDNAKITVYLQMNSLKPEDTAVYYCNAAWPYKSVEYWGQGTQVTVSS | low polyreactivity
23 | QVQLVESGGGLVQAGGSLRLSCAATGIIFRYAMGWYRQAPGKERELVAAIRKSDGSTYYADSVKGRFTISRDNAKNTVYLQMNSLKPEDTAVYYCATDIVYGNRKGFYYWGQGTQVTVSS | high polyreactivity
24 | QVQLVESGGGLVQAGGSLRLSCAATGIIFSWYAMGWYRQAPVKERELVATISSGAHTYYADSVKGRFTISRDNAKNTVYLQMNRLKPEDTAVYYCGAANEFGVVWAQFDYWGQGPQVTVSS | low polyreactivity
25 | QVQLVESGGGLVQAGGSLRLSCAATGIIFYRNAMGWYRQAPGKERELVASISKRGGSTYYADSVKGRFTISRDNAKNTVYLQMNSLKPEDNAVYYCNTRGGIARQFEIYSWGQGTQVTLSS | high polyreactivity
26 | QVQLVESGGGLVQAGGSLRLSCAATGIIYGYVMGWYRQAPGKERELVAVITRSGGSTYYADSVKGRFTISRDNAMNSVYLQMNSLKPEDTAVYYCAAQGIDILYDYWGQGTQVTVSS | low polyreactivity
27 | QVQLVESGGGLVQAGGSLRLSCAATGINFRAYAMGWYRQAPGKERELVAAISSGGNTNYADSVKGRFTISRDNAKNTVYLQMNSLKPEDTAVYYCAAGYFWGRIKYYYWGQGTQVTVSS | high polyreactivity
28 | QVQLVESGGGLVQAGGSLRLSCAATGLILGRNAMGWYRQAPGKERELVAAITGSGSTNYADSVKGRFTISRDNAKNTVYLQMNSLKPEDTAVYYCAADVRLDPTGLDYLDYDYWGQGTQVTVSS | low polyreactivity
29 | QVQLVESGGGLVQAGGSLRLSCAATGRIFVNAMGWYRQAPGKERELVAAINTRGGSTYYADSVKGRFTISRDNAKNSVYLQMNSLKPEDTAVYYCAARFYTSSRYNYWGQGTQVTVSS | high polyreactivity
30 | QVQLVESGGGLVQAGGSLRLSCAATGRIFYRYSMGWYRQAPGKERELVAAIRYSGGTTYADSVKGRFTISRDNAKNTVYLQMNSLKPEDTAVFYCAARASLWGGFESWGQGTQVTVSS | high polyreactivity
31 | QVQLVESGGGLVQAGGSLRLSCAATGRNFAVNAIGWYRQAPGKERELVASIRWSGGGTYYADSVKGRFTISRDNAKNTVYLQMNCLKPEDTAVYYCKALRKTYRLDYWGQGTQVTVSS | high polyreactivity
32 | QVQLVESGGGLVQAGGSLRLSCAATGRTFIPYAMGWYRQAPGKERELVAAIRTTGGSTYYADSVKGRFTISRDNAKNTVYLQMNSLKPEDTAVYYCAATSRQRPYDYWGQGTQVTVSS | high polyreactivity
